According to patent publication US20230295310A1 (ABCELLERA BIOLOGICS, published 2023):
Numbering of substitutions follows the chain as printed.

B1: GOMP001_bsAb_019 (bispecific antibody, human IgG1, kappa, L234A L235A)
heavy 1: QVQLVQSGAEVKKPGASVKVSCKASGYTFTSHWMHWVRKAPGQGLEWIGEFNPSNGRTNYNEEFKSKATMTVDTSTNTAYMELSSLRSEDTAVYYCASRDYDYDGRYFDYWGQGTLVTVSSASTKGPSVFPLAPSSKSTSGGTAALGCLVADYFPEPVTVSWNSGALTSGVHTFPAVLQSSGLYSLSSVVTVPSSSLGTQTYICNVNHKPSNTKVDEKVEPKSCDKTHTCPPCPAPEAAGGPSVFLFPPKPKDTLMISRTPEVTCVVVDVSHEDPEVKFNWYVDGVEVHNAKTKPREEQYNSTYRVVSVLTVLHQDWLNGKEYKCKVSNKALPAPIEKTISKAKGQPREPQVYTLPPSREEMTDNQVSLTCLVKGFYPSDIAVEWESNGQPENNYKTTPPVLMSDGSFFLASKLTVDKSRWQQGNVFSCSVMHEALHNHYTQKSLSLSPG
light 1: RIQMTQSPSSLSASVGDRVTITCSASSSVTYMYWYQDKPGKAPKLLIYDTSNLASGVPSRFSGSGSGTDYTFTISSLQPEDIATYYCQQWSSHIFTFGQGTKVEIKRTVAAPSVFIFPPSDKQLKSGTARVVCLLNNFYPREAKVQWKVDNALQSGNSQESVTEQDSKDSTYSLSSTLTLSKADYEKHKVYACEVTHQGLSSPVTKSFNRGEC
heavy 2: EVQLVDSGGGLVQPGGSLRLSCSGSGFTFSSYWMSWVRYAPGKGLEWVANIKQDGSQKYYVDRVKGRFTISRDNVKNSLYLQMNSLRVEDTAVYYCARDESSSWYWYFDLWGRGTLVTVSSASTKGPSVFPLAPSSKSTSGGTAALGCLVKDYFPEPVTVSWNSGALTSGVHTFPAVLQSSGLYSLSSVVTVPSSSLGTQTYICNVNHKPSNTKVDKKVEPKSCDKTHTCPPCPAPEAAGGPSVFLFPPKPKDTLMISRTPEVTCVVVDVSHEDPEVKFNWYVDGVEVHNAKTKPREEQYNSTYRVVSVLTVLHQDWLNGKEYKCKVSNKALPAPIEKTISKAKGQPRRPRVYTLPPSREEMTKNQVSLVCLVKGFYPSDIAVEWESNGQPENNYKTTPPVLDSDGSFFLYSVLTVDKSRWQQGNVFSCSVMHEALHNHYTQKSLSLSPG
light 2: DIQMTQSPSTLSASVGDRVTLTCRASQNIVKWLAWYQRKPGDAPKLLIYKASSLESGVPSWFSGSGSGTEFTLTINSLQPDDFATYYCQQYYTYSRTFGQGTKVEIKRTVAAPSVFIFPPSDEQLKSGTASVVCLLNNFYPREAKVQWKVDNALQSGNSQESVTEQDSKDSTYSLSSTLTLSKADYEKHKVYACEVTHQGLSSPVTKSFNRGEC
B2: GOMP001_bsAb_022 (bispecific antibody, human IgG1, kappa, L234A L235A)
heavy 1: QMLLVESGGGVVQPGRSLTLSCAASGFTFRSYGMHWVRKAPGRGLEWVAIIWYDGSTEYYADEVKGRFTISRANSKNMLYLQMNSLRAEDTAVYYCAAFDYTNSFDIWGQGTMVTVSSASTKGPSVFPLAPSSKSTSGGTAALGCLVADYFPEPVTVSWNSGALTSGVHTFPAVLQSSGLYSLSSVVTVPSSSLGTQTYICNVNHKPSNTKVDEKVEPKSCDKTHTCPPCPAPEAAGGPSVFLFPPKPKDTLMISRTPEVTCVVVDVSHEDPEVKFNWYVDGVEVHNAKTKPREEQYNSTYRVVSVLTVLHQDWLNGKEYKCKVSNKALPAPIEKTISKAKGQPREPQVYTLPPSREEMTDNQVSLTCLVKGFYPSDIAVEWESNGQPENNYKTTPPVLMSDGSFFLASKLTVDKSRWQQGNVFSCSVMHEALHNHYTQKSLSLSPG
light 1: RIVVTQTPLSSPVTLGQPASISCRSSQRFVHSDGNTYLSWLQDRPGQPPRLLIYKISNRISGVPDRFSGSGAGTDFKLKISRVEAEDVGIYYCMQATQFPYTFGQGTKLEIKRTVAAPSVFIFPPSDKQLKSGTARVVCLLNNFYPREAKVQWKVDNALQSGNSQESVTEQDSKDSTYSLSSTLTLSKADYEKHKVYACEVTHQGLSSPVTKSFNRGEC
heavy 2: QVQLVQSGAEVKKPGASVKVSCKASGYTFTSHWMHWVRYAPGQGLEWIGEFNPSNGRTNYNEKFKSKATMTVDTSTNTAYMELSSLRSEDTAVYYCASRDYDYDGRYFDYWGRGTLVTVSSASTKGPSVFPLAPSSKSTSGGTAALGCLVKDYFPEPVTVSWNSGALTSGVHTFPAVLQSSGLYSLSSVVTVPSSSLGTQTYICNVNHKPSNTKVDKKVEPKSCDKTHTCPPCPAPEAAGGPSVFLFPPKPKDTLMISRTPEVTCVVVDVSHEDPEVKFNWYVDGVEVHNAKTKPREEQYNSTYRVVSVLTVLHQDWLNGKEYKCKVSNKALPAPIEKTISKAKGQPRRPRVYTLPPSREEMTKNQVSLVCLVKGFYPSDIAVEWESNGQPENNYKTTPPVLDSDGSFFLYSVLTVDKSRWQQGNVFSCSVMHEALHNHYTQKSLSLSPG
light 2: B1 light 1 with R1D, D37R, K41D, K122E, R130S
B3: GOMP001_bsAb_021 (bispecific antibody, human IgG1, kappa, L234A L235A)
heavy 1: B1 heavy 1
light 1: B1 light 1
heavy 2: QMLLVESGGGVVQPGRSLTLSCAASGFTFRSYGMHWVRYAPGRGLEWVAIIWYDGSTEYYADRVKGRFTISRANSKNMLYLQMNSLRAEDTAVYYCAAFDYTNSFDIWGRGTMVTVSSASTKGPSVFPLAPSSKSTSGGTAALGCLVKDYFPEPVTVSWNSGALTSGVHTFPAVLQSSGLYSLSSVVTVPSSSLGTQTYICNVNHKPSNTKVDKKVEPKSCDKTHTCPPCPAPEAAGGPSVFLFPPKPKDTLMISRTPEVTCVVVDVSHEDPEVKFNWYVDGVEVHNAKTKPREEQYNSTYRVVSVLTVLHQDWLNGKEYKCKVSNKALPAPIEKTISKAKGQPRRPRVYTLPPSREEMTKNQVSLVCLVKGFYPSDIAVEWESNGQPENNYKTTPPVLDSDGSFFLYSVLTVDKSRWQQGNVFSCSVMHEALHNHYTQKSLSLSPG
light 2: B2 light 1 with R1D, D43R, Q47D, K128E, R136S
B4: GOMP001_bsAb_020 (bispecific antibody, human IgG1, kappa, L234A L235A)
heavy 1: EVQLVDSGGGLVQPGGSLRLSCSGSGFTFSSYWMSWVRKAPGKGLEWVANIKQDGSQKYYVDEVKGRFTISRDNVKNSLYLQMNSLRVEDTAVYYCARDESSSWYWYFDLWGRGTLVTVSSASTKGPSVFPLAPSSKSTSGGTAALGCLVADYFPEPVTVSWNSGALTSGVHTFPAVLQSSGLYSLSSVVTVPSSSLGTQTYICNVNHKPSNTKVDEKVEPKSCDKTHTCPPCPAPEAAGGPSVFLFPPKPKDTLMISRTPEVTCVVVDVSHEDPEVKFNWYVDGVEVHNAKTKPREEQYNSTYRVVSVLTVLHQDWLNGKEYKCKVSNKALPAPIEKTISKAKGQPREPQVYTLPPSREEMTDNQVSLTCLVKGFYPSDIAVEWESNGQPENNYKTTPPVLMSDGSFFLASKLTVDKSRWQQGNVFSCSVMHEALHNHYTQKSLSLSPG
light 1: B1 light 2 with D1R, R38D, D42K, E123K, S131R
heavy 2: B2 heavy 2
light 2: B1 light 1 with R1D, D37R, K41D, K122E, R130S

Biological target: EGFR on HeLa cells (UniProt P00533 25-1210, limits assumed)
Assay: cell-based or functional assay

Row | X… HeLa EC50 [nM] | Binder | Max killing % [%]
1 | – | B1 | 48.3
2 | 0.478 | B2 | 60.6
3 | – | B3 | 25.4
4 | 0.102 | B4 | 79.6
